# Results from publication doi:10.1101/2024.07.16.603632.
# B1: PTP1B^1−321 (wild-type protein tyrosine phosphatase 1B, residues 1-321) (domain or fragment)
# chain: MEMEKEFEQIDKSGSWAAIYQDIRHEASDFPCRVAKLPKNKNRNRYRDVSPFDHSRIKLHQEDNDYINASLIKMEEAQRSYILTQGPLPNTCGHFWEMVWEQKSRGVVMLNRVMEKGSLKCAQYWPQKEEKEMIFEDTNLKLTLISEDIKSYYTVRQLELENLTTQETREILHFHYTTWPDFGVPESPASFLNFLFKVRESGSLSPEHGPVVVHCSAGIGRSGTFCLADTCLLLMDKRKDPSSVDIKKVLLEMRKFRMGLIQTADQLRFSYLAVIEGAKFIMGDSSVQDQWKELSHEDLEPPPEHIPPPPRPPKRILEPHN
# B2: PTP1B^1−401 (domain or fragment)
# chain: MEMEKEFEQIDKSGSWAAIYQDIRHEASDFPCRVAKLPKNKNRNRYRDVSPFDHSRIKLHQEDNDYINASLIKMEEAQRSYILTQGPLPNTCGHFWEMVWEQKSRGVVMLNRVMEKGSLKCAQYWPQKEEKEMIFEDTNLKLTLISEDIKSYYTVRQLELENLTTQETREILHFHYTTWPDFGVPESPASFLNFLFKVRESGSLSPEHGPVVVHCSAGIGRSGTFCLADTCLLLMDKRKDPSSVDIKKVLLEMRKFRMGLIQTADQLRFSYLAVIEGAKFIMGDSSVQDQWKELSHEDLEPPPEHIPPPPRPPKRILEPHNGKCREFFPNHQWVKEETQEDKDCPIKEEKGSPLNAAPYGIESMSQDTEVRSRVVGGSLRGAQAASPAKGEPSLPEKDEDH
# Biological target: fluorescently labeled isolated Grb2 C-SH3 domain
# Assay: fluorescence polarisation; fluorescence anisotropy; PTP1B titrated into a solution of N-terminally fluorophore-labelled Grb2 construct; N = 2–4 independent titrations
row,Binder,Kd [µM]
1,B1,62
2,B2,82.4
